This is an account of results in article PMC7324543, “Rapid and sensitive large-scale screening of low affinity extracellular receptor protein interactions by using reaction induced inhibition of Gaussia luciferase” (Scientific Reports, 2020).

Assay [1] deals with Cd200R (Rattus norvegicus) (UniProt Q9ES58). The following applies: cited from earlier work.
The target of assay [2] is T1, biotinylated rat Cd200R monomeric bait (rat, UniProt Q9ES58 24-239, biotin on a specific lysine of the C-terminal BirA acceptor peptide (enzymatic monobiotinylation)).
T1 chain: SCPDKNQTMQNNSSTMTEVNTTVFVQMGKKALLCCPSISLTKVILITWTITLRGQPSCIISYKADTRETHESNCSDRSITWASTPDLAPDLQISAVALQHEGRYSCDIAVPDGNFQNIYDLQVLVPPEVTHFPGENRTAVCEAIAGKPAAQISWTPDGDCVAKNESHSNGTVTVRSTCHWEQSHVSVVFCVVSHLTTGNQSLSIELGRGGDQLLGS
Nature of the assay: ELISA; printed as log IC50 = -9.6; direct binding of pentameric prey to immobilised bait.

Assay [3] addresses T2, biotinylated rat Cd200R monomeric bait (rat, UniProt Q9ES58 24-239, biotin on a specific lysine of the C-terminal BirA acceptor peptide (enzymatic monobiotinylation)).
T2 construct: Cd200R (CD200 receptor 1), rat, ectodomain; Captured on streptavidin-coated plates by its biotin; also called Cd200R bait; source: HEK293E, transient transfection with BirA plasmid, secreted; purified; not shown: rat Cd4 domains 3+4, C-terminal, kept; BirA biotin acceptor peptide, C-terminal, kept
T2 sequence (looked up): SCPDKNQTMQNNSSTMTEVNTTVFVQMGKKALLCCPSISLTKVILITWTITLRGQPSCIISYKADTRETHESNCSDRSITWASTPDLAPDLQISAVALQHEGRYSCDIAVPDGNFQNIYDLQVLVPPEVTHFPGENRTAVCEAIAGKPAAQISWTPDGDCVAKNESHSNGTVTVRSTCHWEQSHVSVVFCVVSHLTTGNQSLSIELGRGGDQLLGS
The experiment in a line: ELISA; AVEXIS: dilution series of pentameric beta-lactamase prey on a fixed quantity of monomeric mono-biotinylated bait on a streptavidin-coated 96-well plate; 1 h at room temperature, washes in PBS / 0.1% Tween-20; nitrocefin, absorbance at 485 nm. The note with it: both partners purified.

Assay [4] has as its target T3, biotinylated Cd200R Gaussia luciferase pentamer (bait) (rat, UniProt Q9ES58 24-239, biotin on a specific lysine of the C-terminal BirA acceptor peptide (enzymatic biotinylation)).
T3 construct: Cd200R (CD200 receptor 1), rat, ectodomain; also called Cd200R Gaussia luciferase-tagged pentamer; source: HEK293E, transient transfection with BirA plasmid, secreted; purified; not shown: rat Cd4 domains 3+4, C-terminal, kept; five concatenated Gaussia luciferase units (AAG54095 residues K18-D185), C-terminal, kept; BirA biotin acceptor peptide, C-terminal, kept
T3 sequence (looked up): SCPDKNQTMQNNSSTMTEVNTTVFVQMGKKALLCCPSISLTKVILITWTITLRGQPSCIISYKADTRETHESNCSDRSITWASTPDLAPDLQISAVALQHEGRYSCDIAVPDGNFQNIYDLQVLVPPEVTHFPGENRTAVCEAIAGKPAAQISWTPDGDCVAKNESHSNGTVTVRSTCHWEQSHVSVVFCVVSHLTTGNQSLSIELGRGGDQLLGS
The experiment in a line: ELISA; AVEXIS: dilution series of biotinylated Gaussia luciferase pentamer immobilised as bait on a streptavidin-coated plate, probed with beta-lactamase-tagged pentameric prey; nitrocefin read-out. The following applies: both partners purified.

For assay [5], the target named is T2, biotinylated rat Cd200R monomeric bait. Nature of the assay: ELISA; AVEXIS: dilution series of pentameric Gaussia luciferase prey on a fixed quantity of monomeric mono-biotinylated bait on a streptavidin-coated 96-well plate; 1 h at room temperature; coelenterazine, luminescence. The note with it: both partners purified.
Assay [6] deals with T1, biotinylated rat Cd200R monomeric bait. The experiment in a line: ELISA; printed as log IC50 = -9.9; direct binding of pentameric prey to immobilised bait.
The target of assay [7] is T3, biotinylated Cd200R Gaussia luciferase …. The experiment in a line: ELISA; AVEXIS, single construct: dilution series of biotinylated Gaussia luciferase pentamer bait on a streptavidin-coated plate, inactivated with coelenterazine, probed with non-biotinylated Gaussia luciferase pentamer prey; coelenterazine, luminescence. The note with it: both partners purified.
Assay [8] has as its target T2, biotinylated rat Cd200R monomeric bait. Nature of the assay: ELISA; AVEXIS: dilution series of pentameric nano-luciferase prey on a fixed quantity of monomeric mono-biotinylated bait on a streptavidin-coated 96-well plate; 1 h at room temperature; furimazine, luminescence. The following applies: both partners purified.

As to Cd200 (from UniProt P04218), the Kd in assay [1] is 2500 nM.

B1: rat Cd200 beta-lactamase pentameric prey (domain or fragment, UniProt P04218 31-232, looked up)
chain: QVEVVTQDERKLLHTTASLRCSLKTTQEPLIVTWQKKKAVGPENMVTYSKAHGVVIQPTYKDRINITELGLLNTSITFWNTTLDDEGCYMCLFNMFGSGKVSGTACLTLYVQPIVHLHYNYFEDHLNITCSATARPAPAISWKGTGSGIENSTESHSHSNGTTSVTSILRVKDPKTQVGKEVICQVLYLGNVIDYKQSLDKG
notes: Cd200 (OX-2 membrane glycoprotein), rat, extracellular region (ectodomain); Original AVEXIS prey format; Pentamer through COMP; also called Cd200 beta-lactamase tagged prey; beta-lactamase-tagged Cd200 pentamer; source: HEK293E, transient transfection, secreted; not shown: rat Cd4 domains 3+4, C-terminal, kept; beta-lactamase (WP_125075679 residues H19-W282), C-terminal, kept
Turning to B1, the IC50 in assay [2] amounted to 0.25 nM. Also, the binding result in assay [3] and in assay [4] was “binds” each time.

B2: rat Cd200 Gaussia luciferase pentameric prey (domain or fragment, UniProt P04218 31-232, looked up)
chain: QVEVVTQDERKLLHTTASLRCSLKTTQEPLIVTWQKKKAVGPENMVTYSKAHGVVIQPTYKDRINITELGLLNTSITFWNTTLDDEGCYMCLFNMFGSGKVSGTACLTLYVQPIVHLHYNYFEDHLNITCSATARPAPAISWKGTGSGIENSTESHSHSNGTTSVTSILRVKDPKTQVGKEVICQVLYLGNVIDYKQSLDKG
notes: Cd200 (OX-2 membrane glycoprotein), rat, extracellular region (ectodomain); also called Cd200 Gaussia luciferase fusion pentamer; GLuc prey; source: HEK293E, transient transfection, secreted; not shown: rat Cd4 domains 3+4, C-terminal, kept; five concatenated Gaussia luciferase units (AAG54095 residues K18-D185), C-terminal, kept
As to B2, the binding result in assay [5] and in assay [7] was “binds” in each case. This molecule returned an IC50 in assay [6] of 0.126 nM.

B3: rat Cd200 nano-luciferase pentameric prey (domain or fragment, UniProt P04218 31-232, looked up)
chain: QVEVVTQDERKLLHTTASLRCSLKTTQEPLIVTWQKKKAVGPENMVTYSKAHGVVIQPTYKDRINITELGLLNTSITFWNTTLDDEGCYMCLFNMFGSGKVSGTACLTLYVQPIVHLHYNYFEDHLNITCSATARPAPAISWKGTGSGIENSTESHSHSNGTTSVTSILRVKDPKTQVGKEVICQVLYLGNVIDYKQSLDKG
notes: Cd200 (OX-2 membrane glycoprotein), rat, extracellular region (ectodomain); also called NanoLuc prey; Nano luciferase prey; source: HEK293E, transient transfection, secreted; not shown: rat Cd4 domains 3+4, C-terminal, kept; five concatenated nano-luciferase units (AHH41346 residues V2-T171), C-terminal, kept
B3 returned an IC50 in assay [6] of 0.126 nM. In assay [8], the binding result was “binds”.
